This is an account of results in US20240124885A1 (MENDEL BIOTECHNOLOGY, published 2024).

The target of assay [1] is Flag::GmBBX62 (Glycine max). Put plainly: reciprocal Luminex co-IP from soybean protoplast extract, anti-FLAG capture, anti-GFP detection.
In assay [2] the target is Flag::GmBBX62 (Glycine max). Kind of assay: Luminex co-IP from soybean protoplast extract, anti-GFP capture, anti-FLAG detection.
Assay [3] deals with T1, AtBBX32::GFP (Arabidopsis thaliana, UniProt Q9LJB7 1-225).
T1 construct: Fusion protein transiently expressed in soybean cotyledon protoplasts; also called AtBBX32 fused to GFP; not shown: GFP fusion partner
T1 sequence: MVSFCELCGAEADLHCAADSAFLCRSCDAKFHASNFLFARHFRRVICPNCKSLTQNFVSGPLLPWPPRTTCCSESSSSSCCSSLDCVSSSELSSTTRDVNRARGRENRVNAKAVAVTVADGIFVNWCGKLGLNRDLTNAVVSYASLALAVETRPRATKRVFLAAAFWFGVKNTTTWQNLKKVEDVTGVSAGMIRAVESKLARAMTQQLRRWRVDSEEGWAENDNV
Put plainly: Luminex co-IP from soybean cotyledon protoplast extract, both directions. Here is the method: (§1) Capture antibodies for GFP (MBL International, D153-3),Myc (Bethyl Laboratories cat #A190-104A)and FLAG (Bethyl Laboratories, A190-101A) were covalently coupled to carboxylated fluorescent microspheres (Luminex) according to the manufacturer's protocol Luminex two-step Carbodimide coupling protocol was modified as follows: 3.5×10⁶ beads were conjugated to […] of antibody and resuspended in coupling buffer containing 100 mM MES pH 6. Biotinylated antibodies for GFP (Abcam, ab6658), Myc (Bethyl Laboratories cat #A190-104B)and FLAG (Bethyl laboratories, A190-101B) were used for detection of interacting proteins in the miniaturized sandwich immunoassay. NeutrAvidin R-phycoerythrin was used as the reporter assay reagent (Invitrogen, A2660).
To assess the potential interaction between AtBBX32 and GmBBX39, two experiments were conducted consisting of a total of three repetitions (exp. 1, n=1; exp. 2, n=2). BBX32::GFP was co-expressed with FLAG::GmBBX39 in soybean cotyledon protoplasts. Expression analyses on one replicate of each treatment using either Luminex (BBX32::GFP) or Western blot (FLAG::BBX39) detection confirmed that each protein was expressed at detectable levels (data not shown). When co-expressed in protoplasts, BBX32::GFP and FLAG::BBX39 co-precipitated with either anti-GFP or anti-FLAG beads (FIG. 17).

For assay [4], the target named is T1, AtBBX32::GFP. Kind of assay: Luminex co-IP, anti-GFP and anti-Myc capture. Here is the method:
Luminex co-IP assays were performed on extracts from soybean cotyledon protoplasts co-expressing AtBBX32 fused to GFP and GmBBX39 fused to the Myc epitope. A: IP with anti-GFP, detection with anti-Myc. B: IP with anti-Myc, detection with anti-GFP. MFI stands for Median Fluorescence Intensity. * denotes p<0.001.
as §1

B1: AtBBX32::GFP (protein, not shown: large carriers)
chain: MVSFCELCGAEADLHCAADSAFLCRSCDAKFHASNFLFARHFRRVICPNCKSLTQNFVSGPLLPWPPRTTCCSESSSSSCCSSLDCVSSSELSSTTRDVNRARGRENRVNAKAVAVTVADGIFVNWCGKLGLNRDLTNAVVSYASLALAVETRPRATKRVFLAAAFWFGVKNTTTWQNLKKVEDVTGVSAGMIRAVESKLARAMTQQLRRWRVDSEEGWAENDNV
As to B1, the fold increase of fluorescence intensity over controls in assay [1] was 5 fold. This molecule yielded a fold increase of median fluorescence intensity (MFI) over controls in assay [2] of 6 fold.

B2: FLAG::GmBBX39 (other)
chain: MKIQCDVCNKHEASVFCTADEAALCDGCDHRVHHANKLASKHQRFSLLRPSPKQHPLCDICQERRAFTFCQQDRAILCKECDVSIHSANEHTLKHDRFLLTGVKLSASAMLRSSETTSDSNSNPSLLNFSHQTTLLPPSSTTTTTTSNNNNNKVAVEGTGSTSASSISEYLIETLPGWQVEDFLDSYSVPFGFCKNDEVLPRFDGEMEGHLSSFSTENMGIWVPQAPPTLMCSSQMDRVIVHGETNIKGSSRSRLKDDNFTVPQISPPSNSKRARFLW
notes: Co-expressed with BBX32::GFP in soybean cotyledon protoplasts; also called FLAG::BBX39; not shown: FLAG tag
With B2, the binding result in the assay with AtBBX32::GFP [3] is “binds”.

B3: GmBBX39 fused to the Myc epitope (other, not shown: small tags and cut ends)
chain: MKIQCDVCNKHEASVFCTADEAALCDGCDHRVHHANKLASKHQRFSLLRPSPKQHPLCDICQERRAFTFCQQDRAILCKECDVSIHSANEHTLKHDRFLLTGVKLSASAMLRSSETTSDSNSNPSLLNFSHQTTLLPPSSTTTTTTSNNNNNKVAVEGTGSTSASSISEYLIETLPGWQVEDFLDSYSVPFGFCKNDEVLPRFDGEMEGHLSSFSTENMGIWVPQAPPTLMCSSQMDRVIVHGETNIKGSSRSRLKDDNFTVPQISPPSNSKRARFLW
As for B3, the binding result with AtBBX32::GFP [4] is “binds”.
